Measurements: the nanobody polyreactivity screen of Harvey et al. (2022)

Assay: yeast display, Sf9 membrane polyspecificity reagent, FACS + sequencing; frameworks hold sequencing errors
Outline: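 Galactose induction of a Saccharomyces cerevisiae BJ5465 synthetic nanobody display library ran 36–48 hours. The cells were then stained for 1 hour at 4 °C with 10% biotinylated, detergent-solubilized Sf9 membrane reagent, pulled down on streptavidin microbeads and FACS-sorted into low and high (top ~1%) gates on expression and reagent-binding fluorescence. Labels for polyreactivity follow the gate of origin.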

QVQLVESGGGLGQAGGSLRLSCAASGYTFRNYVMGWYRPAPGKERQLVATISRGGRTNYADSVKGRFTISRDNAKNTVYLQMNSLKPEDTAVYYCNADWSRVPYRYDYWGQGTQVTVSS
polyreactivity (PSR sort gate): high polyreactivity

QVQLVESGGCLVQAGGSLPLSSAASGSTFSYNDMGSDRQAPGKARELVADINVSVGRTYYADSVKGRFTISRDNAKNTVYLQMNSLKPEDTAVYYCAKDYYRYHYYYCGQGTQVTVSS
polyreactivity (PSR sort gate): low polyreactivity

QVQLVESGGGLVQAGGSLRLSCAASGRTFWIYAMGWYRQAPGKERELVAGISRSGGSTNYADSVKGRFTISRDNAKNTVYLQMNSLKPEDTAVYYCNTDPYSSAWYNYDYWGQGTQVTVSS
polyreactivity (PSR sort gate): low polyreactivity

QVQLVESGGGLVQAGGSLRLSCAASGSIFAGHAMGWSIQAPGKERELVAAISRRGGNTYYADSVKGRFTISRDNAKNTVYLQMNSLKPEDTAVYYCAVRSRLYSSSIAYDYWGQGTQVTVSS
polyreactivity (PSR sort gate): high polyreactivity

QVQLVESGGGLVQAGGSLRLSCAASGLTFIFYAMGWYRQAPGKERELVATIRRSGSTYYADSVKGRFTISRDNAKNTVYLQMNSLKPEDTAVYYCNARYPYSYGDYWGQGTQVTVSS
polyreactivity (PSR sort gate): high polyreactivity

QVQLVESGGGLVQAGGSLRLSCAASGSTFTLYAMGWYRQAPGTERELVAAISWSGDTTYYADSVKGRFTISRDNAKNTVYLQMNILKPEDTAVYYCAADWYNSYYYEHESWGQGTQVTVSS
polyreactivity (PSR sort gate): high polyreactivity

QVQLQESGGGLLQAGGCLSCTASGTILVQGDMGWYRHAPGKERELVATINDGASTYYADSVKGRFTISRDKAKNTVYLQKNSLKPDDTAVYYCAVFTDITTYFGYWGQGTQVTVSS
polyreactivity (PSR sort gate): low polyreactivity

QVQLVESGGGLVQAGGSLRLSCAASGRTFVGNAMGWYRQAPGKERELVADITWSGDITYYADSVKGRFTISRDNAKNTVYLQKNSLKPEDTAVYYCAADYHRRRTDYDYWGQGTQVTVSS
polyreactivity (PSR sort gate): low polyreactivity

QVQLVESGGGLVQAGRSLRLSCGASGFTFGLYAMGWYRQATGKERELVAAITSSGRRTYYADSVKGRYTISRDKAKNTVSLEMNCLKPEDTAVYYFAKQAYDQSPYNYWGQGTQVTVSS
polyreactivity (PSR sort gate): high polyreactivity

QVQLVESGGGLVQAGGSLRLSLLPPDSPSTTMLWDGIDRRLGKKGSWLPVFLPSGGTTYADSVKGRFTISRDNAKNTVYLQMNSLKPEDTAVYYCAASYYRTRWSWMYYWGQGTQVTLSS
polyreactivity (PSR sort gate): low polyreactivity

QVQLVESGGGLVQAGGSLRLSCAASGRTFVSYAMGWYRQAPGKERELVAAISGSGGSTYYADSVKGRFTISPDNAKKTGYLQMNSLKPEDTAVYYCHKGRPRKVNSEGFGYWGQGTQVTVSS
polyreactivity (PSR sort gate): high polyreactivity

QVQLVESGGGLFQAGGSLRISCAASGSIFRSYAMGWYRQAPGKERELVASISRRGGSTYYADSVKGRFTISRDNAKNTVYLQMNSLKPEDTAVYYCAAVRYNSRVSTTPSEMYYWGQGTQVTVSS
polyreactivity (PSR sort gate): low polyreactivity

QVQLVESGGGLVQAGGSLRLSCAASGRIIFIYAMGWYRQPPGKERELVAGINRTGGSTYYADSVKGRFTISRDNAKNTVYLQMNSLKPEDTAVYYCAAVSYYASDYRYDYWGQGTQVTVSS
polyreactivity (PSR sort gate): low polyreactivity

QVQLVESGGGLVQAGGSLRLSCAASGSTFYPYAMGWYRQAPGKERELVAAISSGGSTSYADSVKGRFTISRDNAKNTVYLQMNSLKPEDTAVYYCAVDVAGGEGMDYWGQGTQVTVSS
polyreactivity (PSR sort gate): low polyreactivity

QVQLVESGGGLVQAGGSLRLSCAASGIIFSVYAMGWYRQAPGKERELVAAITWSGSRTYYADSVKGRFTISRDNAKNTVYLQMNSLKPEDTAVYYCATVFRGFVEYEYWGQGTQVTVSS
polyreactivity (PSR sort gate): low polyreactivity

QDQLVDSGGGLVQAGGSLRLSCAASASTFDPNLMPSYRQAPGKEREVVAAISSRSGSTSYADSVKGRFTISRDNAKNTDYLQMNSLKPEDTAVYYCAARVYGLPLRMYSWGQGTQVTGSS
polyreactivity (PSR sort gate): high polyreactivity

QVQLVESGGGLVQAGGSLRLSCAASGFTFRLYAMGWYRPAPGKERELVARISSGGSTHYADSVKGRFTISRDNAKNTVSLQMNSLKPEDTAVYYCAAGWGYWRSYGSWGQGTQVTVSS
polyreactivity (PSR sort gate): high polyreactivity

QVQLVESGGGLVQAGGTLRLSCAASGGTFRRYAMGWYRQAPGKERELVAAISWTGGSTYYADSVKGRFTISRDNAKNTVYLQMNSLKPEDSAVYYCAAVGSSSSKGGYWGQGTQVTVSS
polyreactivity (PSR sort gate): high polyreactivity

QVQLVESGGGLVQAGGSLRLSCAASGITFDVYAMGWYRQAPGKERELVAAISSVGGTYYADSVKGRFTISRDNAKNTVYLQMNSLKPEDTAVYYCNTDGYVGSIRSGLYIYDYWGQGTQVTVSS
polyreactivity (PSR sort gate): low polyreactivity

QVQLVESGGGLVQAGGSLRLSCAASGSIFPSNAMGWYRQAPGKERELVATIGRGGTTNYADSVKGRFTISRDNAKNTVYLQMNSLKPEDTAVYYCNAERIWRYKYGYDYWGQGTQVTVSS
polyreactivity (PSR sort gate): high polyreactivity

QVQLVESGGGLVQAGGSLRLSCAASGFIFSSYAMGWYRQAPGKERELVAAISWSDSSTYYADSVKGRFTISRDNSKNTVYLQMTSLKPEDTAVYYCNVEVAESYDYWGQGTQVTVSS
polyreactivity (PSR sort gate): low polyreactivity

QVQLVESGGGLVQAGGSLRLSCAASGSTFRRNAMGWYRQAPGKERELVAAISRRGGSTYYADSVKGRFTISRDNAKNTVYLQMNSLKPEDTAVYYCAADNTQVRPKYDYWGQGTQVTVSS
polyreactivity (PSR sort gate): high polyreactivity

QVQLVESGGGVVQAGGSLRLSCAASGSTFYYNAMGWNRQAPGKERELVARISRSGGSTYADSVKGRFTISRDNAKNTVYLQMNSLKPEDTAVYYCNADAYGTPEFTSYAVRYDYWGQGTQVTVSS
polyreactivity (PSR sort gate): low polyreactivity

QVQLVESVGGLVQAGGILRLSSAASGRIFYFYAMGWYRQAPGKERELVAGINWNGGSTHYADSVKGRFTISRDNAKNTVYLQMNSLKPEDTAVYYCAADGYYGQYGGHMGYWGQGTQVTVSS
polyreactivity (PSR sort gate): high polyreactivity

QVQLVESGGGLVQAGGSLRLSSAASGSTFKVNARGWYRQAPGKERELVAGITSSDSTKYADSVKGRFTISRDNAKNTVYLQMNSLKPEDTAVYYSAAETKFSRTSEGDYWGQGTQVTVSS
polyreactivity (PSR sort gate): low polyreactivity

QVQLVESGGGLVQAGGSLRLSCDASGFTFRAYPIGWYREAPGKERELVAAITYSGGRTYYADSVKGRFTISRDNAKNTVYLQMNSLKPEDTAVYYCANYDYWGQGTQVTVSS
polyreactivity (PSR sort gate): high polyreactivity

QVQLVESGGGLVQAGGSLRLSCAASGNTFYRYAMGWYRQAPGKEREFVAGITSRGGSTSYADSVKGRFTISRDNAKNTVYLQMNSLKPEDTAVYYCAKKYFRPLRSYDYWGQGTQVTVSS
polyreactivity (PSR sort gate): high polyreactivity

QVQLVESGGGLVQAGGSLRLSCAASGRTFYKNAMGWYRQAPGKERELVATITSGGSTNYADSVKGRFTISRDNAKNTVYLQMNSLKPEDTAVYYCAAAKPVQFRIAQAHVGYWGQGTQVTVSS
polyreactivity (PSR sort gate): low polyreactivity

EVQLVESGGGLVQAGGSLRLSCAASGYSFSYNTMGWYRQAPGKERELVAAITRSGGSTYYADSVKGRFTISRDNAKNTVYLQMNSLKPEDTAVYYCNRVGWRGLKKANYWGQGTQVTVSS
polyreactivity (PSR sort gate): high polyreactivity

QVQLVESGGGLVQAGGSLRLSCAASGNIFPYYAMGWYRQAPGKERELVASITWSGGRTYYADSVKGRFTISRDNAKNTVYLQMNSLKPEDTAVYYCARRRVYRWYTGDYWGQGTQVTVSS
polyreactivity (PSR sort gate): low polyreactivity

QVQLVESGGGLVQAGGSLRLSCAASGRIFGNNAMAWYRQATGKESELVAGISRTGGSTYYADSVKGRFTISRDNAKNTVYLQMNSLKPEDTAVFYCAALVYSGRYASYGYWGQGTQVTVSS
polyreactivity (PSR sort gate): low polyreactivity

QVQLVESGGGLVQAGGSLRLSCAASGSTFDGYTMGWYRQAPGKERELVAAISWRGTSTYYADSVKGRFTISRYIAKNTVYLQMNSLKPEDTAVYYCAADAYSGYDYWGQGTQVTVSS
polyreactivity (PSR sort gate): low polyreactivity

QVQLVESGGGLVQAGGSLRLICAASGRIFPDYDMGWYRQAPGKERELVAAITQRGGSTYADSVKGRFTISRDNAKNTVYLQMNSLKPEDTAVYYCNARWQRPYDYWGQGTQVTVSS
polyreactivity (PSR sort gate): low polyreactivity

QVQLVESGGGLVQAGGSLRLSCAASGSIFYAYAMGWYRQAPGKERELVAAISASGGSTYYADSVKGRFTISRDNAKNTVYLQMNSLKPEDTAVYYCAALTYSTYQTAYRRYPKNKYWGQGTQVTVSS
polyreactivity (PSR sort gate): high polyreactivity

QVQLVESGGGLVQAGGSLRLSCAASGIIFWRYAMGWYRQAPGKERELVATITSGGSTDYADSVKGRFTISRDNAKNTVYLQMNSLKPEDTEVYYCAALGYATGYWRYYYWGQGTQVTVSS
polyreactivity (PSR sort gate): low polyreactivity

QVQLEESGVGLVQAGGSLRLSCAASGSIFYYNAMGSYRQPHGKERDLVAAISWGDGITYYADSVKGRFTISRDNGKNSVYLPMNSLKPEDTAVYYWAVDYYYLPYEYWGKGTQVTVSS
polyreactivity (PSR sort gate): high polyreactivity

QVQLVESGGGLVQAGGSLRLSCAASGRIFRANTMGWYRQAPGKERELVAVITASGGSTYYADSVKGRFTISRDNAKNTVYLQMNSLKPEDTAVYYCNVRWSPAGTGLLDYWGQGTQVTVSS
polyreactivity (PSR sort gate): high polyreactivity

QVQLVESGGGLVQAGGSLRLSCAASGGILNPNAMGWYRQAPGKERELVAAISNGGGTKYADSVKWRFTISRDNAKNTVYLQMNSLKPEDTAVYYCAARQWWSYDYWGKGTQVTVSS
polyreactivity (PSR sort gate): high polyreactivity

QVQLVESGGGLVQAGGSLRLSCAASGFIFDQYAMGWYRQAPGKERELVATITSDGDTYYADSVKGRFTISRDNAKNTVYLHMISLKPEDSAVYYCAVEPGPYTTGYDYWGQGTQVTVSS
polyreactivity (PSR sort gate): low polyreactivity

QVQLLESGGGLVQAGGSLRLSCAASGFTFNPYAMGWYRQAPGKERELVARISRGTSTNYADSVKGRFTISRDNAKNTVYLQMNSLKPEDTAVYYCAASYGSFHTYLDYNYWGQGTQVTVSS
polyreactivity (PSR sort gate): low polyreactivity

QVQLVESGGGLLQAGGSLRLICAASGRIFTYNAMGWYRQAPGKERELVAAISRRGGTTYYADSVKGRFTISRDNAKNTVYLQMNSLKPEDTAVYYCAALLYYATDDDYWGQGTQVTVSS
polyreactivity (PSR sort gate): high polyreactivity

QVQLVESGGGLVQAGGSLRLSCAASGGTFYPYAMGWYRQAPGKVRELVAAITSCGSTNYADSVKGRFTISRDNAKKTVYLQMNSLKPEDTAVYYCAAKSSYIRPTNSDDYDYWGQGTQVTVSS
polyreactivity (PSR sort gate): low polyreactivity

QVQLVESGGGLVQAGGSLRLSCAASGFNFRGNAMGWYRQAPGKERELVARISGSGDSTYYADSVKGRFTISRDNAKNTVYLQMNSLKPEDTAVYYCNADVFPAVEAYDSSIEYYSWGQGTQVTVSS
polyreactivity (PSR sort gate): low polyreactivity
